Kcat, Kcat/Km and Km data for three proteins are collected here from patent US20050202000.

The target in this series is T1, plasminogen, P00747.
T1 chain: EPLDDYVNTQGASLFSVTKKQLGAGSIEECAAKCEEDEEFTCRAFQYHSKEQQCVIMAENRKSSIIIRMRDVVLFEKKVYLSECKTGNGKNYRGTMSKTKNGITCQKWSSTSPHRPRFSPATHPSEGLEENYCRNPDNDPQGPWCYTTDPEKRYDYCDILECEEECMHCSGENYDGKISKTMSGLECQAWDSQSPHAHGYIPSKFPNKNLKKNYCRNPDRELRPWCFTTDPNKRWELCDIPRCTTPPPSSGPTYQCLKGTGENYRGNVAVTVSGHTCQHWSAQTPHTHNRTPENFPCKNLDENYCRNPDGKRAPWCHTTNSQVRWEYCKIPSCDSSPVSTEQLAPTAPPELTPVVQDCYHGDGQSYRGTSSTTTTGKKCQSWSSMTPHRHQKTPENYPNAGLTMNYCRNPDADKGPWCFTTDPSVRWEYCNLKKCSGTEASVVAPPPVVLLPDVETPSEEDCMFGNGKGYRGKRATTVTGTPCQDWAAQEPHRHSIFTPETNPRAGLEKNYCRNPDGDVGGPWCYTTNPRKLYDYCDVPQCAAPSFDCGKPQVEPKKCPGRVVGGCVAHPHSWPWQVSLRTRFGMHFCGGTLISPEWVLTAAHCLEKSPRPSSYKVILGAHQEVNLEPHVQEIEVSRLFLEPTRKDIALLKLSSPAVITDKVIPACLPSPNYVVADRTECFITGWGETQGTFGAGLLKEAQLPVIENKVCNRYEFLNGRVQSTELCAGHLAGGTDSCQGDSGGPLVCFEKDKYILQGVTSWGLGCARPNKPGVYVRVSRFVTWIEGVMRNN

Changes are numbered by the printed parent chain. Where “and” joins values, the source holds several entries; their conditions need not be identical. Equal entries are not always repeated.

B1: KGD-Sak · plasmin complex (protein)
chain 1: SSSFDKGKYKKGDDASYFEPTGPTLMVNVTGVDGKRNELLSPRYVEFPIKPGTTLTKEKIEYYVEWALDATAYKEFRVVELDPSAKIEVTYYDKNKKKEETKSFPITEKGDVVPDLSEHIKNPGFNLITKVVIEKK
chain 2: KVYLSECKTGNGKNYRGTMSKTKNGITCQKWSSTSPHRPRFSPATHPSEGLEENYCRNPDNDPQGPWCYTTDPEKRYDYCDILECEEECMHCSGENYDGKISKTMSGLECQAWDSQSPHAHGYIPSKFPNKNLKKNYCRNPDRELRPWCFTTDPNKRWELCDIPRCTTPPPSSGPTYQCLKGTGENYRGNVAVTVSGHTCQHWSAQTPHTHNRTPENFPCKNLDENYCRNPDGKRAPWCHTTNSQVRWEYCKIPSCDSSPVSTEQLAPTAPPELTPVVQDCYHGDGQSYRGTSSTTTTGKKCQSWSSMTPHRHQKTPENYPNAGLTMNYCRNPDADKGPWCFTTDPSVRWEYCNLKKCSGTEASVVAPPPVVLLPDVETPSEEDCMFGNGKGYRGKRATTVTGTPCQDWAAQEPHRHSIFTPETNPRAGLEKNYCRNPDGDVGGPWCYTTNPRKLYDYCDVPQCAAPSFDCGKPQVEPKKCPGRVVGGCVAHPHSWPWQVSLRTRFGMHFCGGTLISPEWVLTAAHCLEKSPRPSSYKVILGAHQEVNLEPHVQEIEVSRLFLEPTRKDIALLKLSSPAVITDKVIPACLPSPNYVVADRTECFITGWGETQGTFGAGLLKEAQLPVIENKVCNRYEFLNGRVQSTELCAGHLAGGTDSCQGDSGGPLVCFEKDKYILQGVTSWGLGCARPNKPGVYVRVSRFVTWIEGVMRNN
Broadly, the Km is the concentration of substrate that gives half-maximal velocity. Turning to B1, the Kcat was found to be 1.46 s⁻¹, the Kcat/Km was 0.1 and the Km worked out at 14.1 µM.

B2: Sak · plasmin complex (protein)
chain 1: B1 chain 1 with T24Y, R36G, R43H, D111F
chain 2: B1 chain 2
Turning to B2, the Kcat was 1.03 s⁻¹ and 1.06 s⁻¹; the Kcat/Km was determined as 0.16; the Km was 6.42 µM and 6.51 µM.

B3: RGD-Sak · plasmin complex (protein)
chain 1: B1 chain 1 with K109R
chain 2: B1 chain 2
In the case of B3, the Kcat stood at 1.41 s⁻¹, the Kcat/Km is 0.11 and the Km came out at 12.5 µM.
